Positions of bridges follow the written chain, without caps; N, C: chain ends. No end group written: not given here.
B1: phagemid CS1-31p (phage-displayed disulfide cyclized 13 mer peptide) (peptide)
peptide: CSFFYSLCYCWCS
modifications: disulfide (positions not given here); also: four Cys, disulfide pairing not given here
B2: phagemid CS1-2p (phage-displayed disulfide cyclized 13 mer peptide) (peptide)
peptide: CSLFYLWDQDRCS
modifications: disulfide 1-12 (inferred); also: displayed on phage (phagemid), coat fusion not given here

What follows are binders tested against bovine serum albumin (bovine) (UniProt P02769) (assay: phage ELISA, BSA only, 10^8 phagemid per well).
Chain of bovine serum albumin (bovine) (P02769 25-607 limits assumed): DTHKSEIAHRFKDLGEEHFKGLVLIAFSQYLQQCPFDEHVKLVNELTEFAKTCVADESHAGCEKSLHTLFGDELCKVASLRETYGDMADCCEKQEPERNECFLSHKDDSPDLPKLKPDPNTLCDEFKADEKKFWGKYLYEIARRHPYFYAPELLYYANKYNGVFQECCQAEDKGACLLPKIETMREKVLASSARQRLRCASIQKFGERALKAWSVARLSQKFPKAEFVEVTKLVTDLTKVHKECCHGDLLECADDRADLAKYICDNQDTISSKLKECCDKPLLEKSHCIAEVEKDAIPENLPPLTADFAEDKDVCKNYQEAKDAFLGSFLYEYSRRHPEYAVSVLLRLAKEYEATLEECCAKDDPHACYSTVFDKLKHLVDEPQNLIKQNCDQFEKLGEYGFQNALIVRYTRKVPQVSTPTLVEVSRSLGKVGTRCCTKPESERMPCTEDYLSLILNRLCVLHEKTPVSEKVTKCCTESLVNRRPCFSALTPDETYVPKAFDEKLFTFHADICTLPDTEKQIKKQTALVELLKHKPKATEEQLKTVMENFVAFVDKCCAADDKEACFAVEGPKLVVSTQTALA

Point of comparison: B2, ELISA (absorbance units) (absorbance units) 0.264. Against it:
- CSFRYLWDQDRCS (disulfide 1-12 (inferred); also: displayed on phage (phagemid)) [phagemid CS1-6p (phage-displayed disulfide cyclized 13 mer peptide)] — lower, 0.254
- B1 — lower, 0.109
- CSGLYPWDMFRCS (disulfide 1-12 (inferred); also: displayed on phage (phagemid)) [phagemid CS1-9p (phage-displayed disulfide cyclized 13 mer peptide)] — lower, 0.216
- CSGLYPWDYFMCS (disulfide 1-12 (inferred); also: displayed on phage (phagemid)) [phagemid CS1-29p (phage-displayed disulfide cyclized 13 mer peptide)] — lower, 0.127
- CSFRYQWDMFRCS (disulfide 1-12 (inferred); also: displayed on phage (phagemid)) [phagemid CS1-11p (phage-displayed disulfide cyclized 13 mer peptide)] — higher, 0.268

What follows are binders tested against bovine serum albumin (bovine) (UniProt P02769) (assay: phage ELISA, BSA only, 10^9 phagemid per well).

Point of comparison: CSFRYQWDMFRCS (disulfide 1-12 (inferred); also: displayed on phage (phagemid)) [phagemid CS1-11p (phage-displayed disulfide cyclized 13 mer peptide)], ELISA (absorbance units) (absorbance units) 0.278. Against it:
- CSFRYLWDQDRCS (disulfide 1-12 (inferred); also: displayed on phage (phagemid)) [phagemid CS1-6p (phage-displayed disulfide cyclized 13 mer peptide)] — lower, 0.27
- B1 — lower, 0.114
- CSGLYPWDMFRCS (disulfide 1-12 (inferred); also: displayed on phage (phagemid)) [phagemid CS1-9p (phage-displayed disulfide cyclized 13 mer peptide)] — lower, 0.22
- CSGLYPWDYFMCS (disulfide 1-12 (inferred); also: displayed on phage (phagemid)) [phagemid CS1-29p (phage-displayed disulfide cyclized 13 mer peptide)] — lower, 0.147
- B2 — lower, 0.277

What follows are binders tested against bovine serum albumin (bovine) (UniProt P02769) (assay: phage ELISA, BSA only, 10^10 phagemid per well).

Point of comparison: CSGLYPWDMFRCS (disulfide 1-12 (inferred); also: displayed on phage (phagemid)) [phagemid CS1-9p (phage-displayed disulfide cyclized 13 mer peptide)], ELISA (absorbance units) (absorbance units) 0.221. Against it:
- CSFRYLWDQDRCS (disulfide 1-12 (inferred); also: displayed on phage (phagemid)) [phagemid CS1-6p (phage-displayed disulfide cyclized 13 mer peptide)] — higher, 0.275
- B1 — lower, 0.112
- CSGLYPWDYFMCS (disulfide 1-12 (inferred); also: displayed on phage (phagemid)) [phagemid CS1-29p (phage-displayed disulfide cyclized 13 mer peptide)] — lower, 0.141
- B2 — higher, 0.327
- CSFRYQWDMFRCS (disulfide 1-12 (inferred); also: displayed on phage (phagemid)) [phagemid CS1-11p (phage-displayed disulfide cyclized 13 mer peptide)] — higher, 0.304

What follows are binders tested against unrelated control antibody (assay: phage ELISA, coated control mAb, 10^8 phagemid per well).

Point of comparison: CSFRYQWDMFRCS (disulfide 1-12 (inferred); also: displayed on phage (phagemid)) [phagemid CS1-11p (phage-displayed disulfide cyclized 13 mer peptide)], ELISA (absorbance units) (absorbance units) 0.252. Against it:
- CSFRYLWDQDRCS (disulfide 1-12 (inferred); also: displayed on phage (phagemid)) [phagemid CS1-6p (phage-displayed disulfide cyclized 13 mer peptide)] — lower, 0.173
- B1 — lower, 0.116
- CSGLYPWDMFRCS (disulfide 1-12 (inferred); also: displayed on phage (phagemid)) [phagemid CS1-9p (phage-displayed disulfide cyclized 13 mer peptide)] — lower, 0.209
- CSGLYPWDYFMCS (disulfide 1-12 (inferred); also: displayed on phage (phagemid)) [phagemid CS1-29p (phage-displayed disulfide cyclized 13 mer peptide)] — lower, 0.125
- B2 — lower, 0.188

What follows are binders tested against unrelated control antibody (assay: phage ELISA, coated control mAb, 10^9 phagemid per well).

Point of comparison: CSFRYLWDQDRCS (disulfide 1-12 (inferred); also: displayed on phage (phagemid)) [phagemid CS1-6p (phage-displayed disulfide cyclized 13 mer peptide)], ELISA (absorbance units) (absorbance units) 0.172. Against it:
- B1 — lower, 0.118
- CSGLYPWDMFRCS (disulfide 1-12 (inferred); also: displayed on phage (phagemid)) [phagemid CS1-9p (phage-displayed disulfide cyclized 13 mer peptide)] — higher, 0.204
- CSGLYPWDYFMCS (disulfide 1-12 (inferred); also: displayed on phage (phagemid)) [phagemid CS1-29p (phage-displayed disulfide cyclized 13 mer peptide)] — lower, 0.136
- B2 — higher, 0.199
- CSFRYQWDMFRCS (disulfide 1-12 (inferred); also: displayed on phage (phagemid)) [phagemid CS1-11p (phage-displayed disulfide cyclized 13 mer peptide)] — higher, 0.258

What follows are binders tested against unrelated control antibody (assay: phage ELISA, coated control mAb, 10^10 phagemid per well).

Point of comparison: CSGLYPWDMFRCS (disulfide 1-12 (inferred); also: displayed on phage (phagemid)) [phagemid CS1-9p (phage-displayed disulfide cyclized 13 mer peptide)], ELISA (absorbance units) (absorbance units) 0.213. Against it:
- CSFRYLWDQDRCS (disulfide 1-12 (inferred); also: displayed on phage (phagemid)) [phagemid CS1-6p (phage-displayed disulfide cyclized 13 mer peptide)] — lower, 0.203
- B1 — lower, 0.125
- CSGLYPWDYFMCS (disulfide 1-12 (inferred); also: displayed on phage (phagemid)) [phagemid CS1-29p (phage-displayed disulfide cyclized 13 mer peptide)] — lower, 0.148
- B2 — higher, 0.228
- CSFRYQWDMFRCS (disulfide 1-12 (inferred); also: displayed on phage (phagemid)) [phagemid CS1-11p (phage-displayed disulfide cyclized 13 mer peptide)] — higher, 0.242

Source: US20140147868A1
